Holding throughout (assay): peptide SPOT array, c-Myc-tagged receptor at 1 uM or 100 nM, anti-c-Myc-Cy3
The target of test [1] is T1, Bfl-1, Q16548.
T1 chain: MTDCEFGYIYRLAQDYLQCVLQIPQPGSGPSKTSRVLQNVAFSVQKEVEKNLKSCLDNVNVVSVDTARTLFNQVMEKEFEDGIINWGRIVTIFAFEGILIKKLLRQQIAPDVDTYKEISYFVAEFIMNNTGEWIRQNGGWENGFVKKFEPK

Test [2] deals with T2, Mcl-1, Q07820.
T2 chain: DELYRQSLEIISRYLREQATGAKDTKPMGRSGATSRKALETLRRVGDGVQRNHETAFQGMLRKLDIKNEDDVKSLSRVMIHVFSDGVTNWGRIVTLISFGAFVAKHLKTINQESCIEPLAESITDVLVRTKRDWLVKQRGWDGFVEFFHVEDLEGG

Test [3] addresses Bcl-xL, Q07817.
The target in test [4] is Bcl-2, P10415.
Test [5] has as its target T3, Bcl-w, Q92843.
T3 chain: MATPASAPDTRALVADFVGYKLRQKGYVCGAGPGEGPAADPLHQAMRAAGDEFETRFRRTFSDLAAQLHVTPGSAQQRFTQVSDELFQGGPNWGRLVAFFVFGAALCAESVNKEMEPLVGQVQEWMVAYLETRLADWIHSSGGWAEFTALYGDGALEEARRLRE

Data on 19 molecules can be found in article PMC4072508, “Genome-Wide Prediction and Validation of Peptides That Bind Human Prosurvival Bcl-2 Proteins” (PLoS Computational Biology, 2014).

Chain of Bcl-2, P10415 (P10415 1-217): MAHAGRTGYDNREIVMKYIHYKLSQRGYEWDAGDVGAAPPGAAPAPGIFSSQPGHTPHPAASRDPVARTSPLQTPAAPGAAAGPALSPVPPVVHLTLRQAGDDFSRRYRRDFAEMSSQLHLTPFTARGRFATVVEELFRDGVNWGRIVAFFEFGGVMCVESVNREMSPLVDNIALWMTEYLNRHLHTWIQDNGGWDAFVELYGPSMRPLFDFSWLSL
Chain of Bcl-xL, Q07817 (Q07817 1-209): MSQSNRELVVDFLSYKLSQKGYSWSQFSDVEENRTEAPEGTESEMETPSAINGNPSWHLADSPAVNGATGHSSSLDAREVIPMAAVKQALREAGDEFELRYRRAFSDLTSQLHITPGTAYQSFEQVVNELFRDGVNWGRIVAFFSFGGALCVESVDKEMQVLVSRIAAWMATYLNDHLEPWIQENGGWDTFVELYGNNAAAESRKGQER

Turning to KRALIQCAKDIAKASDEVTRLAKEVA [VCL], the SPOT signal as a fraction of Bim BH3's signal on the same receptor and array in test [1] was determined as 0.08; in test [2], 0.03; in test [3] it was 0.12; in test [4] it was 0.03; in test [5], 0.15.

On to EKNLPKMAEALAHGADVNWANSEENK [ACAP2], for which the SPOT signal as a fraction of Bim BH3's signal on the same receptor and array in test [1] worked out at 0.01; in test [2], 0.02; in test [3] it was 0.02; in test [4], 0.01; in test [5], 0.01.

For the molecule YNLKSPAVKRLMKEAAELKDPTDHYH [UBE2J1], the SPOT signal as a fraction of Bim BH3's signal on the same receptor and array in test [1] is 0.13; in test [2], 0.05; in test [3] it was 0.19; in test [4] it was 0.03; in test [5], 0.08.

In the case of RAIPIKQGILLKRSGKSLNKEWKKKY [AGAP3], the SPOT signal as a fraction of Bim BH3's signal on the same receptor and array in test [1] came out at 0.52; in test [2], 0.35; in test [3], 1.42; in test [4] it was 0.19; in test [5], 0.64.

Take AEHEDDLPENLSEIADLWNSPTRTHG [CDH23]: the SPOT signal as a fraction of Bim BH3's signal on the same receptor and array in test [1] turned out to be 0.01; in test [2], 0.02; in test [3], 0.02; in test [4], 0.01; in test [5], 0.02.

For KCRHEEVVQVLRNAGEEVTLTVSFLK [SNTG1], the SPOT signal as a fraction of Bim BH3's signal on the same receptor and array was 0.02 in test [1]; 0.02 in test [2]; 0.02 in test [3]; 0.01 in test [4]; 0.01 in test [5].

With GMTSEQVAQVLRNCGNSVRMLVARDP [INADL], the SPOT signal as a fraction of Bim BH3's signal on the same receptor and array in test [1] turned out to be 0.15; in test [2], 0.07; in test [3], 0.18; in test [4], 0.04; in test [5] it was 0.06.

Take FQQTISCPEGLRLVGSEVGDRTLPGW [IRF3]: the SPOT signal as a fraction of Bim BH3's signal on the same receptor and array was found to be 0.02 in test [1]; 0.02 in test [2]; 0.03 in test [3]; 0.01 in test [4]; 0.02 in test [5].

As for LGHTGLACLFLKRGADLGARDSEGRD [ACAP1], the SPOT signal as a fraction of Bim BH3's signal on the same receptor and array came to 0.21 in test [1]; 0.045 in test [2]; 0.14 in test [3]; 0.03 in test [4]; 0.1 in test [5].

With CQGDTVISECLQRFADSLQEVVNYHM [ACAP3], the SPOT signal as a fraction of Bim BH3's signal on the same receptor and array in test [1] is 0.11; in test [2], 0.02; in test [3] it was 0.02; in test [4], 0.01; in test [5], 0.02.

PVGYLVESGRLSVMGCDVLKAVSDYF [MFI2]: the SPOT signal as a fraction of Bim BH3's signal on the same receptor and array in test [1] was 0.04; in test [2], 0.03; in test [3], 0.04; in test [4], 0.01; in test [5], 0.02.

Take FVGCEFLHHLLREWGEELQAVLRSSQ [GEMIN4]: the SPOT signal as a fraction of Bim BH3's signal on the same receptor and array stood at 0.02 in test [1]; 0.04 in test [2]; 0.04 in test [3]; 0.01 in test [4]; 0.02 in test [5].

As for PRPLSILGNLLLLCSQDMLTSLTKLS [CYP2F1], the SPOT signal as a fraction of Bim BH3's signal on the same receptor and array in test [1] amounted to 0.33; in test [2], 0.08; in test [3] it was 0.2; in test [4] it was 0.03; in test [5], 0.11.

RIEERKAIIGLYNYAHEMTHGASDRE [NCKAP1]: the SPOT signal as a fraction of Bim BH3's signal on the same receptor and array is 0.03 in test [1]; 0.03 in test [2]; 0.04 in test [3]; 0.02 in test [4]; 0.03 in test [5].

Take CLKRCRSAQVLHLYGATYSADGEDRA [NLRP12]: the SPOT signal as a fraction of Bim BH3's signal on the same receptor and array is 0.11 in test [1]; 0.06 in test [2]; 0.19 in test [3]; 0.05 in test [4]; 0.07 in test [5].

In the case of DSLAKFAGRKLKDCGEDLLVEISEVL [PCM1], the SPOT signal as a fraction of Bim BH3's signal on the same receptor and array in test [1] worked out at 0.01; in test [2], 0.02; in test [3] it was 0.02; in test [4] it was 0.01; in test [5], 0.02.

Take FDHMVPLVEEINRLADELNPLNASQE [C7orf26]: the SPOT signal as a fraction of Bim BH3's signal on the same receptor and array worked out at 0.01 in test [1]; 0.02 in test [2]; 0.02 in test [3]; 0.01 in test [4]; 0.02 in test [5].

TCLNRGFSRLLDNMAEFFRPTEQDLQ [PEX3]: the SPOT signal as a fraction of Bim BH3's signal on the same receptor and array is 0.04 in test [1]; 0.04 in test [2]; 0.06 in test [3]; 0.02 in test [4]; 0.03 in test [5].

As to TSQTEGLSRLLRQHAEDLNSGPLSKL [FES], the SPOT signal as a fraction of Bim BH3's signal on the same receptor and array in test [1] worked out at 0.05; in test [2], 0.02; in test [3], 0.05; in test [4] it was 0.01; in test [5] it was 0.09.
